Values of other authors as cited in US20120082669A1, “HUMAN EPO MIMETIC HINGE CORE MIMETIBODIES, COMPOSITIONS, METHODS AND USES FOR PREVENTING OR TREATING GLUCOSE INTOLERANCE RELATED CONDITIONS OR RENAL DISEASE ASSOCIATED ANEMIA” (priority 2006, published 2012).

Legend:
[1] = system: patients with end-stage renal disease; conditions: patients with end-stage renal disease treated with EPO; cited from earlier work
[2] = cited from earlier work
[3] = target: T1, EPO receptor (Homo sapiens, UniProt P19235); conditions: cited from earlier work
T1 sequence (P19235 25-508): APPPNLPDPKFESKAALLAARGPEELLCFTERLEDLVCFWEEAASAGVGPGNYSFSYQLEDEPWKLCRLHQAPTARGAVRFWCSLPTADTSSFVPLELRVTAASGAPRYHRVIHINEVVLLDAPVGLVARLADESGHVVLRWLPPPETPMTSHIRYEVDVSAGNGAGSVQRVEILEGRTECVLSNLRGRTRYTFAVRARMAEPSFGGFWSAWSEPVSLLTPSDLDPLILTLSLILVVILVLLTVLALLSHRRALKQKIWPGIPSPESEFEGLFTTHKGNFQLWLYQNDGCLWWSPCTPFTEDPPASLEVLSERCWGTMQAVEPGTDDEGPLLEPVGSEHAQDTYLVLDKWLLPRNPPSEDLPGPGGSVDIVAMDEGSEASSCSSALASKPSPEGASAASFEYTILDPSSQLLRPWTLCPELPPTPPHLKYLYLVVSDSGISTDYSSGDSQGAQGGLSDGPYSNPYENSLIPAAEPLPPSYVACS

[4] = serum; cited from earlier work
[5] = target: T1, EPO receptor; conditions: relative to HuEPO; cited from earlier work

Erythropoietin: glycoprotein hormone of 165 amino acids and four carbohydrate chains, primary regulator of erythropoiesis
blood triglyceride, total cholesterol and LDL levels [1]: concomitant improvement
insulin resistance [1]: improve insulin resistance
time to peak serum levels ([2]; after subcutaneous administration): 5 to 24 h
circulating half-life ([2]; intravenously administered, patients with CRF): 3 to 4 h
time detectable levels of plasma erythropoietin are maintained ([2]; within the therapeutic dose range): at least 24 hours

GGTYSCHFGPLTWVCKPQGG [EMP-1]
competition with 125I-labeled EPO for binding to the EPO receptor [3]: competes
ex-vivo half-life [4]: 8 h
activity, fold less than HuEPO [5]: 10,000 to 100,000 fold
